Measured values as given in patent US20260226179A1 (MAB DESIGNS, published 2026).
Positions count from the first letter of the chain named. “And” between values parts separate entries of the source, which are not always exact repeats. Equal entries are not always repeated.

T1: human soluble IL-6R (human, UniProt P08887 20-357)
T1 sequence: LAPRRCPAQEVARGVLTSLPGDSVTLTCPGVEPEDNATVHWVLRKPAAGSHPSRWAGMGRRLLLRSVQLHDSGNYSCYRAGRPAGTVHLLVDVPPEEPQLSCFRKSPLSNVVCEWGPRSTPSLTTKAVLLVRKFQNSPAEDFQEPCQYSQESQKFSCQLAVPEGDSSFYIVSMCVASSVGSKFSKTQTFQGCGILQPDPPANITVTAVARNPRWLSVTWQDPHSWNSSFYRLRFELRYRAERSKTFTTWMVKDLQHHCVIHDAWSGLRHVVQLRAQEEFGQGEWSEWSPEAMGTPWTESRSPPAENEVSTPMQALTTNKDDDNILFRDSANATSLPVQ

T2: human membrane-bound IL-6R subunit alpha (human, UniProt P08887 20-468)
T2 sequence: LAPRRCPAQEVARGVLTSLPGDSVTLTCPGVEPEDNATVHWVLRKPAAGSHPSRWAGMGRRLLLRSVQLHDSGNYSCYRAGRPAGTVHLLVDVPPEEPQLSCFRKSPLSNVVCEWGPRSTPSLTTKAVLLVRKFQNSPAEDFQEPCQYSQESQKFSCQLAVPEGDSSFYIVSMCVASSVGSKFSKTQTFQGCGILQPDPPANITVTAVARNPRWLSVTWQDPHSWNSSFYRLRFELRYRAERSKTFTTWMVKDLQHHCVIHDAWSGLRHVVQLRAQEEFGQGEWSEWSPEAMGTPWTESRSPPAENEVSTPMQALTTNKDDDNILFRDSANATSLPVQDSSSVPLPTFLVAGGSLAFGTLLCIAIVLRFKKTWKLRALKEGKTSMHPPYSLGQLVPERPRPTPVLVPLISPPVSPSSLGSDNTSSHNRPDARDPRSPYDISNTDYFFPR

T3: murine soluble IL-6R (mouse, UniProt P22272 20-347, limits assumed)
T3 sequence: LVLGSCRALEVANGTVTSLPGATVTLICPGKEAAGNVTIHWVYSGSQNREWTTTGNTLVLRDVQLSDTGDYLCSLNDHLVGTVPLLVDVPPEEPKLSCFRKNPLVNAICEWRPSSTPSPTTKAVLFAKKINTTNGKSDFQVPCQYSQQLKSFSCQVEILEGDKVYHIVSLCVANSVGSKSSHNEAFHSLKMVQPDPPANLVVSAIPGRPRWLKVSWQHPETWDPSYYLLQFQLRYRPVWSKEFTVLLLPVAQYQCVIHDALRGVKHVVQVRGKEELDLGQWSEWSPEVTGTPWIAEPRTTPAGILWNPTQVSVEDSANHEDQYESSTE

T4: human membrane-bound IL-6R subunit alpha (human, UniProt P08887 20-468)
T4 sequence: T2 sequence

T5: mouse membrane-bound IL-6R subunit alpha (mouse, UniProt P22272 20-460)
T5 sequence: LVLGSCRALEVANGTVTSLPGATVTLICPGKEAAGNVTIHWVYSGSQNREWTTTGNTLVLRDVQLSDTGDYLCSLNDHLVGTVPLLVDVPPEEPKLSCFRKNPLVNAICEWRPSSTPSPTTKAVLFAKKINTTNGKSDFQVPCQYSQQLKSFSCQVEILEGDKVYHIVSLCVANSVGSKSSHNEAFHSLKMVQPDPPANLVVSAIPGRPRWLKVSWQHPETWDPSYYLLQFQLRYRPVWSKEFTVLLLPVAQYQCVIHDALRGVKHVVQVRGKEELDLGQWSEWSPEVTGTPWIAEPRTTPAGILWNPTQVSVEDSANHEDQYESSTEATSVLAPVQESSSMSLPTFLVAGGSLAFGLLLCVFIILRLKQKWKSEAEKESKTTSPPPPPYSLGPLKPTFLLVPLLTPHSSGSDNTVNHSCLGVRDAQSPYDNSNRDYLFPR

T6: human soluble IL-6R (human, UniProt P08887 20-357, limits assumed)
T6 sequence: T1 sequence

B1: anti-IL-6R IgG antibody C07 (antibody, V domains shown)
VH: EVKLVESGGGLVQPGGSLKLSCAASGFTFSSYAMSWVRQTADKRLELVANINSNGGSTYYPDSVKGRFTISRDNAKNTLFLQMSSLKSEDTAMYYCAREGYYTMDYWGQGTSVTVSS
VL: DIVLTQSPASLAVSPGQRATISCRASESVDSYGNSFMNWYQQKPGQPPKLLIYLASNLESGVPARFSGSGSRTDFTLTIDPVEADDAATYYCQQNNEDPYTFGGGTKLEIK
B2: anti-IL-6R IgG antibody C19 (antibody, V domains shown)
VH: B1 VH with V5M, S31N, A33G, A41P, N50I, I51M, N54K, K65M, F80Y, E99D
VL: B1 VL with P15L, E27K, Y32F, N38H, P47S, K49R, Y53F
B3: anti-IL-6R IgG antibody C20 (antibody, V domains shown)
VH: EVKLMESGGGLVQPGGSLKLSCAASGFTFSNYGMSWVRQTPDKRLELVAIINSNGGSTYYPDSVKGRFTISRDNAKNTLYLQMSSLKSEDTAIYYCARDGNFVSDYWGQGTTLTVSS
VL: B1 VL with P15L, S35R, M37L
B4: anti-IL-6R IgG antibody 07 (C07 antibody, Fab chimerized with human IgG1) (antibody, V domains shown)
VH: B1 VH
VL: B1 VL
B5: anti-IL-6R IgG antibody C12 (antibody, V domains shown)
VH: B3 VH with L47W, I50N, K76Q, I93M, A97T
VL: B1 VL
B6: anti-IL-6R IgG antibody C09 (antibody, V domains shown)
VH: B3 VH with K3Q, M5V, G10D, I50A, I93M, F102Y
VL: B1 VL with P15L, N38H, Y100W

Experiments:
Assay in all cases: cell-based or functional assay
human soluble IL-6R [1] = target: T1, human soluble IL-6R
[2] = target: T2, human membrane-bound IL-6R subunit alpha
murine soluble IL-6R = target: T3, murine soluble IL-6R
[3] = target: T4, human membrane-bound IL-6R subunit alpha; remark: listed apart in the source
[4] = target: T5, mouse membrane-bound IL-6R subunit alpha
[5] = target: T5, mouse membrane-bound IL-6R subunit alpha; remark: listed apart in the source
[6] = target: T4, human membrane-bound IL-6R subunit alpha; remark: listed apart in the source
human soluble IL-6R [7] = target: T6, human soluble IL-6R
[8] = target: Hyper-IL-6 (recombinant fusion protein consisting of IL-6 and soluble IL-6R)
[9] = target: T4, human membrane-bound IL-6R subunit alpha; remark: listed apart in the source
[10] = target: T4, human membrane-bound IL-6R subunit alpha; remark: listed apart in the source
human soluble IL-6R [11] = target: T6, human soluble IL-6R; remark: listed apart in the source
[12] = target: T4, human membrane-bound IL-6R subunit alpha; remark: listed apart in the source

| Binder | Proliferation in % (Ba/F3_gp130 cells, IL-6 + sIL-6R = 100%; IL-6 trans signalling) at IgG 10 ng/ml (human soluble IL-6R [1]) [%] | Proliferation in % (Ba/F3_gp130 cells, IL-6 + sIL-6R = 100%; IL-6 trans signalling) at IgG 100 ng/ml (human soluble IL-6R [1]) [%] | Proliferation in % (Ba/F3_gp130 cells, IL-6 + sIL-6R = 100%; IL-6 trans signalling) at IgG 300 ng/ml (human soluble IL-6R [1]) [%] | Proliferation in % (Ba/F3_gp130 cells, IL-6 + sIL-6R = 100%; IL-6 trans signalling) at IgG 500 ng/ml (human soluble IL-6R [1]) [%] | Proliferation in % (Ba/F3_gp130 cells, IL-6 + sIL-6R = 100%; IL-6 trans signalling) at IgG 700 ng/ml (human soluble IL-6R [1]) [%] | Proliferation in % (Ba/F3_gp130 cells, IL-6 + sIL-6R = 100%; IL-6 trans signalling) at IgG 1,000 ng/ml (human soluble IL-6R [1]) [%] | Proliferation in % (Ba/F3_gp130 cells, IL-6 + sIL-6R = 100%; IL-6 trans signalling) at IgG 10,000 ng/ml (human soluble IL-6R [1]) [%] | IC50 for the inhibition of IL-6 classical signalling-induced proliferation (Ba/F3_gp130_IL-6R cells + IL-6) [2] [µg/mL] | IC50 for the inhibition of IL-6 mixed signalling-induced proliferation (Ba/F3_gp130_IL-6R cells + IL-6 + sIL-6R) [2] | also measured |
| --- | --- | --- | --- | --- | --- | --- | --- | --- | --- | --- |
| B1 | 98.8 | 92.2 | 78.3 | 70.2 | 55.3 | 41.2 | 9.6 | > 10 | > 10 µg/ml and > 53 nM |  |
| B2 | 99.2 | 92.2 | 88.5 | 78.3 | 72.3 | 57.7 | 10.8 | > 10 | > 10 µg/ml and > 53 nM |  |
| B3 | 103 | 88.5 | 84.8 | 52.8 | 36.1 | 16.3 | 6.5 | > 10 | > 10 µg/ml and > 53 nM |  |
| B4 |  |  |  |  |  |  |  |  |  | Proliferation in % of Ba/F3_gp130 cells (10 ng/ml murine IL-6 + 200 ng/ml murine soluble IL-6R = 100%), IgG at 10 µg/ml (murine soluble IL-6R): 104%; Proliferation in % of Ba/F3_gp130_IL-6R cells with 10 ng/ml IL-6 and 200 ng/ml sIL-6R (mixed signalling), IgG at 1 µg/ml [3]: 93%; Proliferation in % of Ba/F3_gp130_IL-6R cells with 10 ng/ml IL-6 and 200 ng/ml sIL-6R (mixed signalling), IgG at 10 µg/ml [3]: 85.9%; Proliferation in % of Ba/F3_gp130_muIL-6R cells (10 ng/ml murine IL-6 = 100%), IgG at 10 µg/ml [4]: 101%; Proliferation in % of Ba/F3_gp130_muIL-6R cells (10 ng/ml murine IL-6 + 200 ng/ml murine soluble IL-6R = 100%, mixed signalling), IgG at 10 µg/ml [5]: 108%; Proliferation in % of Ba/F3_gp130_IL-6R cells (10 ng/ml IL-6 = 100%), IgG at 1 µg/ml [6]: 92%; Proliferation in % of Ba/F3_gp130_IL-6R cells (10 ng/ml IL-6 = 100%), IgG at 10 µg/ml [6]: 90.8%; STAT3 phosphorylation in % in HEK293 cells (10 ng/ml IL-6 + 200 ng/ml sIL-6R for 30 min = 100%), IgG at 1 µg/ml (human soluble IL-6R [7]): 2.8%; IC50 of inhibition of proliferation of Ba/F3_gp130 cells induced by 28 ng/ml Hy-IL-6 [8]: 644 ng/ml and 4.3 nM; STAT3 phosphorylation in % in HEK293_IL-6R cells (10 ng/ml IL-6 for 30 min = 100%), IgG at 1 µg/ml [9]: 86.2%; STAT3 phosphorylation in % in HEK293_IL-6R cells (10 ng/ml IL-6 + 200 ng/ml sIL-6R = 100%, mixed signalling), IgG at 1 µg/ml [10]: 105%; IC50 of inhibition of proliferation of Ba/F3_gp130 cells induced by 10 ng/ml IL-6 and 200 ng/ml sIL-6R (human soluble IL-6R [11]): 757 ng/ml and 5 nM; IC50 for inhibition of IL-6 classical signalling-induced proliferation [12]: > 53 nM |
| B5 | 101 | 98.9 | 89.1 | 75.3 | 66.9 | 48.1 | 11.6 | > 10 | > 10 µg/ml and > 53 nM |  |
| B6 | 98.2 | 93.1 | 88.3 | 82.6 | 82.5 | 72.9 | 25.8 | > 10 | > 10 µg/ml and > 53 nM |  |
